From patent US7851436 (WASHINGTON UNIVERSITY IN ST LOUIS, dated 2010)

Columns and labels:
β1 integrin = biological target: T1, β1 integrin (human, UniProt P05556 21-798); assay: GST pull-down from surface-biotinylated Ch-1 lysate, Western blot (FIG. 3K)
T1 construct: whole, on cells; Probed by Western blot in the material pulled out by PIIBNP
Experimental: (§1) Cell Surface labeling and GST Pull-down Assay. Ch-1 cells were incubated with EZ-link Sulfo-NHS-Biotin reagent for 30 mins. according to the product instruction (Sigma). After 3 washes with 0.1 M glycine in PBS, the cells were lysed with a lysis buffer described above. […] The membrane was washed and incubated with antibodies and then incubated with a secondary antibody coupled to horseradish peroxidase. The antibody complex was visualized by enhanced chemiluminescence.

α4 integrin = biological target: T2, α4 integrin (human, UniProt P13612 34-1032); assay: GST pull-down from surface-biotinylated Ch-1 lysate, Western blot (data not shown)
T2 construct: whole, on cells; The antibody lists in the methods name α2, α3 and α5 but not α4
T2 sequence (looked up): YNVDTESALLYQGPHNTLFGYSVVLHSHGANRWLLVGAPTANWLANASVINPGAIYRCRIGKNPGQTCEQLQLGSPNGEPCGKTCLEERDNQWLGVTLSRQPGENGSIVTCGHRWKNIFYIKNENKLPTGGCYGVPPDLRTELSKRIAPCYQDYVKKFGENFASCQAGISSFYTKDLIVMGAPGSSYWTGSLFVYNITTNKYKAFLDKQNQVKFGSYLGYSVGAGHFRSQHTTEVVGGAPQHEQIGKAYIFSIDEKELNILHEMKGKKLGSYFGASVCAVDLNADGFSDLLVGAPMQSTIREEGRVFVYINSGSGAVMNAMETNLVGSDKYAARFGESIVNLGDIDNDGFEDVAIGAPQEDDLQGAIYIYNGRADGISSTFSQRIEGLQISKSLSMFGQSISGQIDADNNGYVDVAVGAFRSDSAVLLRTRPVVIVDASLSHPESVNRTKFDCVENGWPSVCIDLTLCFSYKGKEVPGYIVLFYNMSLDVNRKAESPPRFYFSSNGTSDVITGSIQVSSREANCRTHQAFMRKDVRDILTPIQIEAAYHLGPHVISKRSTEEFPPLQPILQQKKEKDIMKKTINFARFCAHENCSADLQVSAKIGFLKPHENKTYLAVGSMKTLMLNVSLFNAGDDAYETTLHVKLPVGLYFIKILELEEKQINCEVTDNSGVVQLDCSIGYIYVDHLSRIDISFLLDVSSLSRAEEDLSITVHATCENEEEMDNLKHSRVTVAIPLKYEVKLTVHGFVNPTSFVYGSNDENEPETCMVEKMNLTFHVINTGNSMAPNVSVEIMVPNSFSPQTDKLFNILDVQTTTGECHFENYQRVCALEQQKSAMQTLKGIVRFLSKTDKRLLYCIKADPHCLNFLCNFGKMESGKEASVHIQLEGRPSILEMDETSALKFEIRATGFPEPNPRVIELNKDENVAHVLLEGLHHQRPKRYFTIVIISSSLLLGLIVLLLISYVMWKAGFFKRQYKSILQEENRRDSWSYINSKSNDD

α5 integrin = biological target: T3, α5 integrin (human, UniProt P08648 42-1049); assay: as above
T3 construct: whole, on cells
Experimental: as §1

Measured: binding result

T1 sequence (P05556 21-798): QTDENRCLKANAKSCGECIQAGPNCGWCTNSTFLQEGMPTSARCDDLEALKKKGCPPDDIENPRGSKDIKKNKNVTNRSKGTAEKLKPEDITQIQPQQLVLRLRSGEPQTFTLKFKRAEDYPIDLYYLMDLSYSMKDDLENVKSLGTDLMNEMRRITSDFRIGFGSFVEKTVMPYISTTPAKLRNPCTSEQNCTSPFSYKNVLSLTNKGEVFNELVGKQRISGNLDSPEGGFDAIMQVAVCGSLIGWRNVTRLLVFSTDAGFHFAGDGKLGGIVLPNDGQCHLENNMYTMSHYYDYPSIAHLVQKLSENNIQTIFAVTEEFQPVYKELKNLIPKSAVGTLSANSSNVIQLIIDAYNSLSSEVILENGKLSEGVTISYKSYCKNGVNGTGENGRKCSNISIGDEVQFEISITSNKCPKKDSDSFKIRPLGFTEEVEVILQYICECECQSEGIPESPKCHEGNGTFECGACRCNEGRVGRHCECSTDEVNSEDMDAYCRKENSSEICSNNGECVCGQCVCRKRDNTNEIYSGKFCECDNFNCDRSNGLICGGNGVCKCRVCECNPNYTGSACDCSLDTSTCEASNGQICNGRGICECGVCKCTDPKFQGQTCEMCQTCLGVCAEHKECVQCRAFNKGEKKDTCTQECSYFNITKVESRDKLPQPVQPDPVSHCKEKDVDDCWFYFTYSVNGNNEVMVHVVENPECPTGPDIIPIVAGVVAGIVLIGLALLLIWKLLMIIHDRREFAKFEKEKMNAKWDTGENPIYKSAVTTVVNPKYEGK
T3 sequence (P08648 42-1049): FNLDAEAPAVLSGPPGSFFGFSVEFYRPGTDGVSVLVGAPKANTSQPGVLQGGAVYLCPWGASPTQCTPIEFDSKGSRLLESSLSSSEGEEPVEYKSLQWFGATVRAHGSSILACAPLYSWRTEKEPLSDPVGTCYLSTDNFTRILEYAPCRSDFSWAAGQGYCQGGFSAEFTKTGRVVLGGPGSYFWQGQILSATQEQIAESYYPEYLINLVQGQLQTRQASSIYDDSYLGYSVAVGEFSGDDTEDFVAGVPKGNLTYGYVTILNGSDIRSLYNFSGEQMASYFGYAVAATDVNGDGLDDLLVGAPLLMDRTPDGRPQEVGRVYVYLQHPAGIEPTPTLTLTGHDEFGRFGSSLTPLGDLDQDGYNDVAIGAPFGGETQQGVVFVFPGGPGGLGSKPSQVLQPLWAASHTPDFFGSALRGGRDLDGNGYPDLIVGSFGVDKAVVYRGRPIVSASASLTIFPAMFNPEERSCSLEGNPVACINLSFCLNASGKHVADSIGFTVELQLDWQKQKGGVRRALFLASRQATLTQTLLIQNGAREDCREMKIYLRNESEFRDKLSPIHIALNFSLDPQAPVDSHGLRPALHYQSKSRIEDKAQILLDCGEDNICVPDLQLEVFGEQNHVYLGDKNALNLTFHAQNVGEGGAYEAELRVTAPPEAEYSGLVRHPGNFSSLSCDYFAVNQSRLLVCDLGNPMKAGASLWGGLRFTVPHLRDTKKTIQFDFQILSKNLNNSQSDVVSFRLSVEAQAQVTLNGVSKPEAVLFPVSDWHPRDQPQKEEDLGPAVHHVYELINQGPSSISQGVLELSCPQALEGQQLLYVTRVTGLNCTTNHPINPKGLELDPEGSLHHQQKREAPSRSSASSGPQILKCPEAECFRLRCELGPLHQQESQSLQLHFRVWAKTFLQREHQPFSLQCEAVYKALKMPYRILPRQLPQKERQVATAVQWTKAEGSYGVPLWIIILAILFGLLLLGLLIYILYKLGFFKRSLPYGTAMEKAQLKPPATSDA

B1: GST-PIIBNP (GST fusion of human Type IIB collagen amino propeptide, exons 3-8) (ligand)
chain: not shown
notes: domain: PIIBNP (exons 3-8); Expressed in E. coli BL21 (DE3) as a GST fusion; also called Type IIB propeptide; PPIIBNP; not shown: glutathione S-transferase (GST) tag encoded by the pGEX-4T-2 vector, thrombin-cleavable
no binding: all assays above
